According to article PMC12170185, “Dynamic RNA binding and unfolding by nonsense-mediated mRNA decay factor UPF2”:

Tests used:
UPF2 MIF4G-D3;UPF3B = UPF2 MIF4G-D3;UPF3B (human?;human?, UniProt Q9HAU5;Q9BZI7 761-1054;41-262, |); assay: EMSA; FA: 25 mM HEPES pH 7.45, 150 mM NaCl, 5% glycerol, 10 nM probe, temperature not stated; EMSA: 250 nM probe in 25 mM HEPES pH 7.45, 100 mM NaCl, 5% glycerol (protein dilution buffer 300 nM [sic] NaCl, 2 mM bME or 1 mM TCEP), 1 h on ice, gel at 4 C; settings: protein: recombinant;recombinant; tags: C-terminal TEV site and His6;; copies: 1;1; label: 5' HEX; hairpin with bulges
UPF1 = biological target: T1, UPF1 (UniProt Q92900-2 115-914); assay: as above; settings: protein: recombinant; label: 5' HEX; hairpin with bulges
T1 sequence: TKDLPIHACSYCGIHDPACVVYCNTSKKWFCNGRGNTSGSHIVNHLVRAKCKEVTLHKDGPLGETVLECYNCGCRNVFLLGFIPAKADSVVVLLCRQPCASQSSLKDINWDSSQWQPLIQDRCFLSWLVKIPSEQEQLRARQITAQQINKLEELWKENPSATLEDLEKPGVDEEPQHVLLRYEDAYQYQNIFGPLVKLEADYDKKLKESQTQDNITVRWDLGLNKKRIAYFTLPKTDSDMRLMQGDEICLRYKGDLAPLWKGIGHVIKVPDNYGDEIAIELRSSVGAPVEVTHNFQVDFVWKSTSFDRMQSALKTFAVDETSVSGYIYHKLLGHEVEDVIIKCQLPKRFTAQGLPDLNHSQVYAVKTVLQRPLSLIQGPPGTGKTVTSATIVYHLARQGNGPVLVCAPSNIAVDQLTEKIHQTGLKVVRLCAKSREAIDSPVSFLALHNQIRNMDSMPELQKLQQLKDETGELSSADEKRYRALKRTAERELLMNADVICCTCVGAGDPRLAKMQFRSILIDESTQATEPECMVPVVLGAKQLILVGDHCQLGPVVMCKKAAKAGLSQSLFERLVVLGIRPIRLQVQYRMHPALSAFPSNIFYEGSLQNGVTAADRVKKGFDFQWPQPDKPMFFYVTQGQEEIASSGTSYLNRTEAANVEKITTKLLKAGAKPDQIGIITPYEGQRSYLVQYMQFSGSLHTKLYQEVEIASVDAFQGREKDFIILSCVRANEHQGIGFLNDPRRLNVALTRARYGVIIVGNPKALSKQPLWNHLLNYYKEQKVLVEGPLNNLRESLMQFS

UPF2L;UPF3B;UPF1 = UPF2L;UPF3B;UPF1 (human?;human?;human?, UniProt Q9HAU5;Q9BZI7;Q92900-2 121-1227;41-262;115-914, ||); assay: as above; settings: protein: recombinant;recombinant;recombinant; tags: C-terminal TEV site and His6;;; copies: 1;1;1; label: 5' HEX; hairpin with bulges
UPF2L [1] = biological target: T2, UPF2L (UniProt Q9HAU5 121-1227); assay: fluorescence anisotropy; FA: 25 mM HEPES pH 7.45, 150 mM NaCl, 5% glycerol, 10 nM probe, temperature not stated; EMSA: 250 nM probe in 25 mM HEPES pH 7.45, 100 mM NaCl, 5% glycerol (protein dilution buffer 300 nM [sic] NaCl, 2 mM bME or 1 mM TCEP), 1 h on ice, gel at 4 C; settings: protein: recombinant; tags: C-terminal TEV site and His6; label: 5' HEX; hairpin with bulges
UPF3B = biological target: T3, UPF3B (UniProt Q9BZI7 41-262); assay: EMSA; excess UPF3B gives oligomers in well; FA: 25 mM HEPES pH 7.45, 150 mM NaCl, 5% glycerol, 10 nM probe, temperature not stated; EMSA: 250 nM probe in 25 mM HEPES pH 7.45, 100 mM NaCl, 5% glycerol (protein dilution buffer 300 nM [sic] NaCl, 2 mM bME or 1 mM TCEP), 1 h on ice, gel at 4 C; settings: protein: recombinant; label: 5' HEX; hairpin with bulges
T3 sequence: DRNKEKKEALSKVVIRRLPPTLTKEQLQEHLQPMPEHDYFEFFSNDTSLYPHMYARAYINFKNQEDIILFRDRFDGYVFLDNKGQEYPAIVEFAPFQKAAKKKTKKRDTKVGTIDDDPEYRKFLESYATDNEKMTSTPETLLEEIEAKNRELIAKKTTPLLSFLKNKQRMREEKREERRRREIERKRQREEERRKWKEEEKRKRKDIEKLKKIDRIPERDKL

UPF2 MIF4G-D2 = UPF2 MIF4G-D2 (UniProt Q9HAU5 455-757); assay: EMSA; no defined complex band, no remodeling; FA: 25 mM HEPES pH 7.45, 150 mM NaCl, 5% glycerol, 10 nM probe, temperature not stated; EMSA: 250 nM probe in 25 mM HEPES pH 7.45, 100 mM NaCl, 5% glycerol (protein dilution buffer 300 nM [sic] NaCl, 2 mM bME or 1 mM TCEP), 1 h on ice, gel at 4 C; settings: protein: recombinant; tags: C-terminal TEV site and His6; label: 5' HEX; hairpin with bulges
UPF2 MIF4G-D1-2 = UPF2 MIF4G-D1-2 (UniProt Q9HAU5 120-757); assay: as above; settings: protein: recombinant; tags: C-terminal TEV site and His6; label: 5' HEX; hairpin with bulges
UPF2 MIF4G-D1 = UPF2 MIF4G-D1 (UniProt Q9HAU5 120-486); assay: as above; settings: protein: recombinant; tags: C-terminal TEV site and His6; label: 5' HEX; hairpin with bulges
UPF2L;UPF3B = UPF2L;UPF3B (human?;human?, UniProt Q9HAU5;Q9BZI7 121-1227;41-262, |); assay: EMSA; higher affinity than UPF2L alone, lower than UPF3B; FA: 25 mM HEPES pH 7.45, 150 mM NaCl, 5% glycerol, 10 nM probe, temperature not stated; EMSA: 250 nM probe in 25 mM HEPES pH 7.45, 100 mM NaCl, 5% glycerol (protein dilution buffer 300 nM [sic] NaCl, 2 mM bME or 1 mM TCEP), 1 h on ice, gel at 4 C; settings: protein: recombinant;recombinant; tags: C-terminal TEV site and His6;; copies: 1;1; label: 5' HEX; hairpin with bulges
UPF2 MIF4G-D3 = UPF2 MIF4G-D3 (UniProt Q9HAU5 761-1054); assay: EMSA; weak unquenched complex band; FA: 25 mM HEPES pH 7.45, 150 mM NaCl, 5% glycerol, 10 nM probe, temperature not stated; EMSA: 250 nM probe in 25 mM HEPES pH 7.45, 100 mM NaCl, 5% glycerol (protein dilution buffer 300 nM [sic] NaCl, 2 mM bME or 1 mM TCEP), 1 h on ice, gel at 4 C; settings: protein: recombinant; tags: C-terminal TEV site and His6; label: 5' HEX, 3' BHQ-1; hairpin with bulges
UPF2L [2] = biological target: T2, UPF2L; assay: fluorescence spectroscopy (unquenching); FA: 25 mM HEPES pH 7.45, 150 mM NaCl, 5% glycerol, 10 nM probe, temperature not stated; EMSA: 250 nM probe in 25 mM HEPES pH 7.45, 100 mM NaCl, 5% glycerol (protein dilution buffer 300 nM [sic] NaCl, 2 mM bME or 1 mM TCEP), 1 h on ice, gel at 4 C; settings: protein: recombinant; tags: C-terminal TEV site and His6; label: 5' HEX, 3' BHQ-1; hairpin with bulges

T2 sequence (Q9HAU5 121-1227): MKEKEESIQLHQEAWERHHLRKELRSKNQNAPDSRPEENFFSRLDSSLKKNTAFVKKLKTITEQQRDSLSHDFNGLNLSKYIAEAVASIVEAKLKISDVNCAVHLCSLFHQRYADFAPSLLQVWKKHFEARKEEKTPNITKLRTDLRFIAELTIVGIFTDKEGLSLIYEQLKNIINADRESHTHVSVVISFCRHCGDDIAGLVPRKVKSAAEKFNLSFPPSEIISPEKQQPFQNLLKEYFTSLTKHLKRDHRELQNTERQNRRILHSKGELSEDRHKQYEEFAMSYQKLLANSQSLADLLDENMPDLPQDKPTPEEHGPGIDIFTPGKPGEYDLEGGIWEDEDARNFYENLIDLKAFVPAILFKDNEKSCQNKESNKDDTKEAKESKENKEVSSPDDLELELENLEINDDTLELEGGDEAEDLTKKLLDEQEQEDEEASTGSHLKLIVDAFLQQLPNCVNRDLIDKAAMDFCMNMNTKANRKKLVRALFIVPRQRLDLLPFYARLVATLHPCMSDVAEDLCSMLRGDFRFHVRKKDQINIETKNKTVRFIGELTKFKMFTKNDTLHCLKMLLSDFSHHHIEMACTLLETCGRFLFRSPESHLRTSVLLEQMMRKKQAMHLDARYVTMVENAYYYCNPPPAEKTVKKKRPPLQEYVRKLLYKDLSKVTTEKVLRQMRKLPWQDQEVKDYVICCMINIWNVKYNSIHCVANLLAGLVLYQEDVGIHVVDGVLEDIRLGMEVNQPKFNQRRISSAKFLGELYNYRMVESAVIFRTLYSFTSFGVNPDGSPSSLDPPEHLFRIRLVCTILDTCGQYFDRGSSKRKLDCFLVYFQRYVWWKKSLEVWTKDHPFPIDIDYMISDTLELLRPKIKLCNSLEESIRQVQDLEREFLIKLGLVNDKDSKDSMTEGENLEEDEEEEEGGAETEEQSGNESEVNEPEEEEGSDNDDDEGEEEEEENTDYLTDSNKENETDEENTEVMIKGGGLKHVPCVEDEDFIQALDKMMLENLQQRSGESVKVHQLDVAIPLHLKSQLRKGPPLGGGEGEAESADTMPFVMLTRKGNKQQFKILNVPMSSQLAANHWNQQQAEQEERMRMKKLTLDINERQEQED
Sequence of UPF2 MIF4G-D2 (Q9HAU5 455-757): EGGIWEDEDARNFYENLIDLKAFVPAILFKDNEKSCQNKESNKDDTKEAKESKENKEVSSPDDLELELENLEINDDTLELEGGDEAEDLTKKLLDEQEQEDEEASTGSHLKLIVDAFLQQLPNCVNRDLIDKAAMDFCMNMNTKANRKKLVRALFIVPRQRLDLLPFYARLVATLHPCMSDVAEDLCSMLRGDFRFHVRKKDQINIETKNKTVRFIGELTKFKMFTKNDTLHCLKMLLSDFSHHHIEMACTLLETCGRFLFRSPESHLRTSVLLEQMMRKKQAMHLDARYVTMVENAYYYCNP
Sequence of UPF2 MIF4G-D3;UPF3B (Q9HAU5 761-1054, one chain of several): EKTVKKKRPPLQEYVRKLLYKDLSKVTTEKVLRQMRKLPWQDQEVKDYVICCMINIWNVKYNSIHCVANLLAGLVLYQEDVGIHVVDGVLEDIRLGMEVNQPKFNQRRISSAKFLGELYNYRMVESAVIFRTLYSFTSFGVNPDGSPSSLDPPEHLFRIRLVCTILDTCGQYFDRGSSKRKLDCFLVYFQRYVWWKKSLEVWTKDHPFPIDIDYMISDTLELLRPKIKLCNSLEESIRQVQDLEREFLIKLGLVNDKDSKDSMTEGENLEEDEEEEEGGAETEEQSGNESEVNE
Sequence of UPF2 MIF4G-D3 (Q9HAU5 761-1054): as the sequence (Q9HAU5 761-1054, one chain of several) above
Sequence of UPF2L;UPF3B;UPF1 (Q9HAU5 121-1227, one chain of several): as the sequence (Q9HAU5 121-1227) above
Sequence of UPF2L;UPF3B (Q9HAU5 121-1227, one chain of several): as the sequence (Q9HAU5 121-1227) above
Sequence of UPF2 MIF4G-D1-2 (Q9HAU5 120-757): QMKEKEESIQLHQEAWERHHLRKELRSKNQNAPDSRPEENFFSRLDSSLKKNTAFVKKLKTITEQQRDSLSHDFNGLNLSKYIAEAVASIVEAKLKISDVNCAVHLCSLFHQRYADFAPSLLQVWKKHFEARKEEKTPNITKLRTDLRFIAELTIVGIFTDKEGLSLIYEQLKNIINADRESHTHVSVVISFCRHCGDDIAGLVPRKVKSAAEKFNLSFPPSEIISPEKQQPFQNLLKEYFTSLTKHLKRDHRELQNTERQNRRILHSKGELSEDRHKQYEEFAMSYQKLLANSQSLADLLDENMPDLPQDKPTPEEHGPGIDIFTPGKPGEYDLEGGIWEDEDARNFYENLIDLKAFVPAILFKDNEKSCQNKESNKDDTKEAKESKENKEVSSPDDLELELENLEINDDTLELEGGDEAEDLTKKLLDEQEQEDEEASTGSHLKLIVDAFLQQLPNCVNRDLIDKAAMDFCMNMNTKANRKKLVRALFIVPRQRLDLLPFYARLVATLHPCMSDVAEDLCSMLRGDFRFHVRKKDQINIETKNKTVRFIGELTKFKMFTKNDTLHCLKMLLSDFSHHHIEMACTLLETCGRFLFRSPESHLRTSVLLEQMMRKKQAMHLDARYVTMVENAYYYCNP
Sequence of UPF2 MIF4G-D1 (Q9HAU5 120-486): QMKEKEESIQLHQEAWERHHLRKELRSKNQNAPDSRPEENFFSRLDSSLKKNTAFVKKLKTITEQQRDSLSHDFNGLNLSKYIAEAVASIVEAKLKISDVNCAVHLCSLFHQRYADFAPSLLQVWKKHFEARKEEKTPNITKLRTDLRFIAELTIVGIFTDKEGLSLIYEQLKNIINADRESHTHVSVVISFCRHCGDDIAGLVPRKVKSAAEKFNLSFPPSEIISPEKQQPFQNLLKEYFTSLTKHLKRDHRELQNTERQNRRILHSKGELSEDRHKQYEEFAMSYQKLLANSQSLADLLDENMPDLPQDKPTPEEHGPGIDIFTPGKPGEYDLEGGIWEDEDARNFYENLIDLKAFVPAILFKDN

Binder | binding result (UPF2 MIF4G-D3;UPF3B) | binding result (UPF1) | binding result (UPF2L;UPF3B;UPF1) | Kd (UPF2L [1]) [nM] | binding result (UPF3B) | binding result (UPF2 MIF4G-D2) | binding result (UPF2 MIF4G-D1-2) | binding result (UPF2 MIF4G-D1) | binding result (UPF2L;UPF3B) | binding result (UPF2 MIF4G-D3) | binding result (UPF2L [2])
CCCUGAGCUGACGCAGCACCUGGG (structured_RNA) [24 nt hp-RNA] | binds | binds | binds | 223 | binds | no binding | no binding | no binding | binds | – | –
CCCUGAGCUGACGCAGCACCUGGG (structured_RNA, 3' BHQ-1) [HEX_hp-RNA_BHQ molecular beacon] | – | – | – | – | – | – | – | – | – | binds | binds
